Among the data in PMC4753514 are surface density of adhered DLD-1 cells on the ProG-TGT (43 pN) surface with Ecad-Fc (control surface without Ecad-Fc: 8/mm^2), film thickness increase and stoichiometry N (Ecad-Fc per ProG-TGT (molar ratio)) values, retold here.

Assay [1] deals with Ecad-Fc (recombinant human epithelial cadherin fused with IgG-Fc).
Assay [2] has as its target ProG-TGT (Protein G fragment, amino acids 190-384, conjugated to a double-stranded DNA tension gauge tether with biotin) (UniProt P19909). The assay is described as follows: micro-ring resonator; 200 ug/ml neutravidin, 0.05 uM ProG-TGT and 50 ug/ml Ecad-Fc flowed successively over a polymer-passivated surface presenting biotin; ProG-TGT held through biotin:neutravidin; film thickness read out.

In the case of “E-cadherin on DLD-1 cells (from UniProt P12830 155-882) (receptor)”, in assay [1], the surface density of adhered DLD-1 cells on the ProG-TGT (43 pN) surface with Ecad-Fc (control surface without Ecad-Fc: 8/mm^2) is 386 /mm^2.

Take “Ecad-Fc (recombinant human epithelial cadherin fused with IgG-Fc) (Fc fusion)”: in assay [2], the film thickness increase amounted to 237 pm and the stoichiometry N (Ecad-Fc per ProG-TGT (molar ratio)) stood at 0.87.
